B1: Gag polyprotein (Moloney murine leukemia virus (isolate Shinnick) (MoMLV)), P03332 (parent)
chain: MGQTVTTPLSLTLGHWKDVERIAHNQSVDVKKRRWVTFCSAEWPTFNVGWPRDGTFNRDLITQVKIKVFSPGPHGHPDQVPYIVTWEALAFDPPPWVKPFVHPKPPPPLPPSAPSLPLEPPRSTPPRSSLYPALTPSLGAKPKPQVLSDSGGPLIDLLTEDPPPYRDPRPPPSDRDGNGGEATPAGEAPDPSPMASRLRGRREPPVADSTTSQAFPLRAGGNGQLQYWPFSSSDLYNWKNNNPSFSEDPGKLTALIESVLITHQPTWDDCQQLLGTLLTGEEKQRVLLEARKAVRGDDGRPTQLPNEVDAAFPLERPDWDYTTQAGRNHLVHYRQLLLAGLQNAGRSPTNLAKVKGITQGPNESPSAFLERLKEAYRRYTPYDPEDPGQETNVSMSFIWQSAPDIGRKLERLEDLKNKTLGDLVREAEKIFNKRETPEEREERIRRETEEKEERRRTEDEQKEKERDRRRHREMSKLLATVVSGQKQDRQGGERRRSQLDRDQCAYCKEKGHWAKDCPKKPRGPRGPRPQTSLLTLDD
B2: Gag polyprotein (Moloney murine leukemia virus (isolate Shinnick) (MoMLV)), P03332 (parent)
chain: B1 chain
partner: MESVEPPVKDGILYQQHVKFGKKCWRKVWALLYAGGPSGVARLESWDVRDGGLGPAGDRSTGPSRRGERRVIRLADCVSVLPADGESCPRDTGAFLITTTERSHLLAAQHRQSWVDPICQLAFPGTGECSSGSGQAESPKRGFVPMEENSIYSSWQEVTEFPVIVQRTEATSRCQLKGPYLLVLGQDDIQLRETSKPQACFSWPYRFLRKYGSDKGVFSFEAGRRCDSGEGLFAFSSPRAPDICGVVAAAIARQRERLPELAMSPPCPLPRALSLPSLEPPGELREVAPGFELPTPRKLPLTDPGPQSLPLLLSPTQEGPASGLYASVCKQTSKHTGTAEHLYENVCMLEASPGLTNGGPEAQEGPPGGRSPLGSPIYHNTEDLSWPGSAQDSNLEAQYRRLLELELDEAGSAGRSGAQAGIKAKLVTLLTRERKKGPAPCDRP
B3: Ras GTPase-activating-like protein IQGAP1 (Mus musculus), Q9JKF1 (parent)
chain: MSAAEEVDGLGVVRPHYGSVLDNERLTAEEMDERRRQNVAYEYLCHLEEAKRWMEACLGEDLPPTTELEEGLRNGVYLAKLGNFFSPKVVSLKKIYDREQTRYKATGLHFRHTDNVIQWLNAMDEIGLPKIFYPETTDIYDRKNMPRCIYCIHALSLYLFKLGLAPQIQDLYGKVDFTEEEINNMKIELEKYGIQMPAFSKIGGILANELSVDEAALHAAVIAINEAIDRRVAADTFTALKNPNAMLVNLEEGLAPTYQDVLYQAKQDKMTNAKNRTENSDRERDVYEELLTQAEIQGNVNKVNTSSALANISLALEQGCAVTLLKALQSLALGLRGLQTQNSDWYMKQLQSDLQQKRQSGQTDPLQKEEVQAGVDAANSAAQQYQRRLAAVAAINAAIQKGIAEKTVLELMNPEAQLPQVYPFAADLYQKELATLQQQSPEHSLTHPELTVAVEMLSSVALINRALESGDMTTVWKQLSSSVTGLTNIEEENCQRYLDELMKLKAQAHAENNAFITWNDIQACVDHVNLVVHEEHERILAIGLINEALDEGDAQKTLQALQIPAAKLEGVLAEVAQHYQDTLIRAKREKAQETQDESAVLWLDEIQGGIWQSNKDTQEAQRFALGISAINEAVDSGDVGRTLSALRSPDVGLYGVIPECGETYQSDLAEAKKKRLAAGDNNSKWVKHWVKGGYHYYHNLETQAGGWAEPPDFVQNSVQLSREEIQSSISGVTAAYNREQLWLANEGLITKLQACCRGYLVRQEFRSRMNFLKKQIPAITCIQSQWRGYKQKKAYQDRLAYLHSHKDEVVKIQSLARMHQARKRYRDRLQYFRDHINDIIKIQAFIRANKARDDYKTLINAEDPPMIVVRKFVHLLDQSDQDFQEELDLMKMREEVITLIRSNQQLENDLNLMDIKIGLLVKNKITLQDVVSHSKKLTKKNKEQLSDMMMINKQKGGLKALSKEKREKLEAYQHLFYLLQTNPTYLAKLIFQMPQNKSTKFMDSVIFTLYNYASNQREEYLLLRLFQTALQEEIKSKVDQIQEIVTGNPTVIKMVVSFNRGARGQNALRQILAPVVKEIMDDKSLNIKTDPVDIYKSWVNQMESQTGEASKLPYDVTPEQALSHEEVKTRLDNSIRNMRAVTDKFLSAIVSSVDKIPYGMRFIAKVLKDSLHEKFPDAGEDELLKIIGNLLYYRYMNPAIVAPDAFDIIDLSAGGQLTTDQRRNLGSIAKMLQHAASNKMFLGDNAHLSIINEYLSQSYQKFRRFFQVACDVPELQDKFNVDEYSDLVTLTKPVIYISIGEIINTHTLLLDHQDAIAPEHNDPIHELLDDLGEVPTIESLIGESCGNSNDPNKEALAKTEVSLTLTNKFDVPGDENAEMDARTILLNTKRLIVDVIRFQPGETLTEILETPATNEQEAEHQRAMQRRAIRDAKTPDKMKKSKPMKEDNNLSLQEKKEKIQTGLKKLTELGTVDPKNRYQELINDIAKDIRNQRRYRQRRKAELVKLQQTYSALNSKATFYGEQVDYYKSYIKTCLDNLASKGKVSKKPREMKGKKSKKISLKYTAARLHEKGVLLEIEDLQANQFKNVIFEIGPTEEVGDFEVKAKFMGVQMETFMLHYQDLLQLQYEGVAVMKLFDRAKVNVNLLIFLLNKKFYGK

The variants in the first assay derive from B1. The conditions noted are these: with iqga1_mouse Iqgap1, Q9JKF1.
Turning to Q63A;V64A;K65A, the “effect of a mutation on the interaction” value is listed as “disrupting interaction”.

The variants in the next assay derive from B1. The conditions noted are these: with iqga1_mouse Iqgap1, Q9JKF1. The source holds these as a separate data set.
For the variant L60A;I61A;T62A, the “effect of a mutation on the interaction” value is “disrupting interaction”.

The variants in the next assay derive from B2. The conditions noted are these: with dok3_mouse Dok3, Q9QZK7.
As to G72A;P73A;H74A, the “effect of a mutation on the interaction” value is “disrupting interaction”.

In the next assay the parent is B2. The conditions noted are these: with dok3_mouse Dok3, Q9QZK7. This is another data set of the same source.
For L89A;F91A;D92A, the “effect of a mutation on the interaction” value is “disrupting interaction”.

In the next assay the parent is B2. Conditions: with dok3_mouse Dok3, Q9QZK7. The source holds these as a separate data set.
F69A;S70A;P71A: the “effect of a mutation on the interaction” value is “disrupting interaction”.

The variants in a further assay derive from B3. Conditions: with gag_mlvms gag.
N1514A;S1515A;K1516A: the “effect of a mutation on the interaction” value was “disrupting interaction”.

(Values after IntAct's records for PubMed 16628219.)
